From patent publication US20250092426, “CAS ENDONUCLEASES AND RELATED METHODS” (Flagship Pioneering Innovations VII, LLC, published 2025)

Target: T1, CasEnd-20 (synthetic construct)
T1 chain: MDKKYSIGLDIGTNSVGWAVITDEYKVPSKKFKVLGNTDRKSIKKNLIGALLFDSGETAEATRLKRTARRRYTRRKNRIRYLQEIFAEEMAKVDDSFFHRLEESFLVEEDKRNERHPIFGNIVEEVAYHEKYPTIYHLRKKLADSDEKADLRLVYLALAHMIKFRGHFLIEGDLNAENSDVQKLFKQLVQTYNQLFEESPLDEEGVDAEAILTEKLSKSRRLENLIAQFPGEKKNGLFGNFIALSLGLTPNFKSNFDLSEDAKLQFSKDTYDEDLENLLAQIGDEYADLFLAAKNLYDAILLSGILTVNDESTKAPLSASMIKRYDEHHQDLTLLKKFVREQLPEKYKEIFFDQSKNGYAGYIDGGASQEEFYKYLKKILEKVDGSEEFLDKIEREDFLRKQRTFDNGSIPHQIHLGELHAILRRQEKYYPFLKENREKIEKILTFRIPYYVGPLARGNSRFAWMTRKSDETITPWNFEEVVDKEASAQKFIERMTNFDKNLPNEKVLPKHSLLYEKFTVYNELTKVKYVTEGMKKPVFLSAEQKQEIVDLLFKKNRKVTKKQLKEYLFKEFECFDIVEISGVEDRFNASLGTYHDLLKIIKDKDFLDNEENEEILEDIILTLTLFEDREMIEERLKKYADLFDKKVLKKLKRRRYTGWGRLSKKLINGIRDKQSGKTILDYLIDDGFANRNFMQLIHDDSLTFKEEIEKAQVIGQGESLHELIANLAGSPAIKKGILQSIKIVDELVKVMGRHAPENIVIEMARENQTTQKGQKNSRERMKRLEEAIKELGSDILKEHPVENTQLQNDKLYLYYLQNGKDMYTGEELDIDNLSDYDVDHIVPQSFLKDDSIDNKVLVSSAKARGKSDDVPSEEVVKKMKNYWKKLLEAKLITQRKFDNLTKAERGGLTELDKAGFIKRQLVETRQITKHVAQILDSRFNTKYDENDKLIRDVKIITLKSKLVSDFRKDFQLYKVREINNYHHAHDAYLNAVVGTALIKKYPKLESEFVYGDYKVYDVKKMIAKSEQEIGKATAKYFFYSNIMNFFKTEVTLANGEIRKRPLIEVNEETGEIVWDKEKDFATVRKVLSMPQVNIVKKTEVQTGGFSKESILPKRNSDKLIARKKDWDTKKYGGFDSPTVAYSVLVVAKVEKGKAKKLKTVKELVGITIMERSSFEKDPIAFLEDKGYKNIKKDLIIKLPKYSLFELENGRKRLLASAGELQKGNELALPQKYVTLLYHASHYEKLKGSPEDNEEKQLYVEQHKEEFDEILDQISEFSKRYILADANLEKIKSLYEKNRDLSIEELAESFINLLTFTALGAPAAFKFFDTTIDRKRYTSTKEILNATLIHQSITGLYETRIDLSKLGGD
Assay: cell_activity; +++; K562, second nick guide SEQ 380; PAM not stated
Protocol: The ability of the candidate endonucleases, including endonucleases 1-38 (CasEnds 1-38) (set forth in Table 1 and SEQ ID NOS: 1-38, respectively), to mediate target nucleic acid editing in cells was assessed by amplicon sequencing of the endogenous hemoglobin subunit beta (eHBB) gene, wherein the percent of amplicons displaying the intended edit is measured. The editing system is comprised of a template RNA (designed to introduce the Single Nucleotide Polymorphism), a second nick guide RNA, and a fusion protein consisting of retroviral reverse transcriptase and the individual subject Cas endonuclease.
Briefly, 250 ng of plasmid DNA encoding the subject fusion protein (containing one of the subject CasEnds), 250 ng each of plasmid DNA encoding the template RNA and the second nick guide RNA were added to 15 μL Lonza SF buffer containing 250,000 K562 cells. Nucleofection was mediated utilizing program FF-120-DA on a Lonza nucleofector. The day of nucleofection was marked as day 0. At day 3, the cells were harvested and subjected to lysis buffer treatment overnight. Genomic DNA was extracted and used for targeted amplicon sequencing to evaluate the performance of each Cas endonucleases based on their percent edit efficiencies.

B1: HBB template RNA ; HBB protospacer (ssRNA ; dsDNA)
RNA: CAUGGUGCACCUGACUCCUGGUUUUAGAGCUAGAAAUAGCAAGUUAAAAUAAGGCUAGUCCGUUAUCAACUUGAAAAAGUGGCACCGAGUCGGUGCACGGCAGACUUCUCUGCCGGAGUCAGGUGC
DNA 1: CATGGTGCACCTGACTCCTG
DNA 2: CAGGAGTCAGGTGCACCATG
- activity: ≥ 100 % of reference
